From paper PMC6083498, “F-CphI represents a new homing endonuclease family using the Endo VII catalytic motif” come the findings set out here.

In the series the target is T1, F-CphI (cyanophage S-PM2, UniProt Q7Y4H4 1-142).
T1 sequence: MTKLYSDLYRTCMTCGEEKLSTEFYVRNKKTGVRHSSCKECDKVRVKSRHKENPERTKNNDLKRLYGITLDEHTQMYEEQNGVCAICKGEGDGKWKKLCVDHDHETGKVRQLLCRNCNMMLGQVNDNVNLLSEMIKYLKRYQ
Briefly: EMSA; no Mg2+ added; Kd value only in figure; EMSA: 10 mM Tris-HCl pH 8.0, 2% glycerol, 2 ug/ml poly-dIdC, 2 ug/ml BSA, 0.2 mM DTT, on ice 15 min, 2 nM labeled DNA; 8% native PAGE in 1X TBE. The note with it: protein: recombinant; tags: C-terminal Myc-His (pBAD/Myc-HisB; in frame with downstream His-tag); label: 5'-32P on top strand; blunt. (In general: Mobility shift assays separate free from complexed probe on a gel.)

B1: SBM4-60Top duplex (dsDNA)
DNA 1: TGGTCTGGGTATGGAAGTGATGCACGAGCGCAACGCTCACAACTTCCCTCTCGACCTTGC
DNA 2: GCAAGGTCGAGAGGGAAGTTGTGAGCGTTGCGCTCGTGCATCACTTCCATACCCAGACCA
In the case of B1, the binding result is given as “binds”.
